Source: patent US20200199206A1 (AC THERA, published 2020)

T1: LF-Biotin (B. anthracis, UniProt P15917 34-809)
T1 sequence: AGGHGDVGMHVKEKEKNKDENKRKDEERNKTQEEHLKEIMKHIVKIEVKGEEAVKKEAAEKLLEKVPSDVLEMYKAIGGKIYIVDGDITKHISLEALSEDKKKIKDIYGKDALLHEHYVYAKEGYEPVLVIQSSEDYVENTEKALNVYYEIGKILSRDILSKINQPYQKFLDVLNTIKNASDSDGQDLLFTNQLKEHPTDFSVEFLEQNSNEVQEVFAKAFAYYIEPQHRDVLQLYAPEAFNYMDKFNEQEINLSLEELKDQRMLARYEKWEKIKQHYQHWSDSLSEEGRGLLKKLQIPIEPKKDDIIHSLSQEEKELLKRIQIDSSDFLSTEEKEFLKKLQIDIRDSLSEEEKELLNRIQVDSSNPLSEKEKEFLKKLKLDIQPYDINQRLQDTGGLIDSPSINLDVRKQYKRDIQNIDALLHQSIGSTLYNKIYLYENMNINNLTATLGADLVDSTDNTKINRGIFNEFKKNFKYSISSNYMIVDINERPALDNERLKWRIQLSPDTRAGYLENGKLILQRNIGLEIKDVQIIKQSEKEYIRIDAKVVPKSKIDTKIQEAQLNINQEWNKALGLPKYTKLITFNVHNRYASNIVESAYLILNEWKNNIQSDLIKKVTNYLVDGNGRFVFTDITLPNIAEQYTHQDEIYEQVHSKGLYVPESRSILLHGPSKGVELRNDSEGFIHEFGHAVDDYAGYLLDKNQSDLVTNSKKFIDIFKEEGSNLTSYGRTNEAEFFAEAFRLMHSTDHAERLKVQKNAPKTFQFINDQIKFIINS

T2: EF-Biotin (B. anthracis, UniProt P40136 34-800)
T2 sequence: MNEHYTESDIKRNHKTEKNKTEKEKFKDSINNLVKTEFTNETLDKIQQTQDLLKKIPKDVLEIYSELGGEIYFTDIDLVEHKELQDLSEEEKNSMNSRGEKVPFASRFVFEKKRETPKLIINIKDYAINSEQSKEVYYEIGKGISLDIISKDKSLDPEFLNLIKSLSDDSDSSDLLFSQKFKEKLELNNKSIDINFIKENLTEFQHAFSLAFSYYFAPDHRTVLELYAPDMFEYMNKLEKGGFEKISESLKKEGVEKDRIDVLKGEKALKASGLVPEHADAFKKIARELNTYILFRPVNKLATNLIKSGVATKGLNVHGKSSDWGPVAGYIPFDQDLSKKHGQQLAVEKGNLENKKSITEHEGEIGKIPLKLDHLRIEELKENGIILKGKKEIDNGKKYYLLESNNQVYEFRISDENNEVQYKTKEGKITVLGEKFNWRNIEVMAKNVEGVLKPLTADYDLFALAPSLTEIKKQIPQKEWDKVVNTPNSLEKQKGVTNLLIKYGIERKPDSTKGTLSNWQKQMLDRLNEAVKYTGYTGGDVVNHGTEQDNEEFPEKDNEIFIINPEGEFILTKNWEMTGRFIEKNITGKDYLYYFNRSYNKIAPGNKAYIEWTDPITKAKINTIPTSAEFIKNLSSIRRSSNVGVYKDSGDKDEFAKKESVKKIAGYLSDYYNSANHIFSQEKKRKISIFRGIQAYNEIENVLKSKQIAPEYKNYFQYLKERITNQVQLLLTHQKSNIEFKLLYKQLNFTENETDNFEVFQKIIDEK

B1: clone 4 (VHH)
VHH: EVQLQASGGGFVQPGGSLRLSCAASGRTFRIDTMGWFRQAPGKEREFVSAISFDTSHENYYADSVKGRFTISRDNSKNTVYLQMNSLRAEDTATYYCAPESMWFSIEYWGQGTQVTVSS
B2: clone 57 (VHH)
VHH: EVQLQASGGGFVQPGGSLRLSCAASGGTSFQTAMGWFRQAPGKEREFVSAISSRQGSHPYYADSVKGRFTISRDNSKNTVYLQMNSLRAEDTATYYCATRMTETRKMYWGQGTQVTVSS
B3: clone 2 (VHH)
VHH: EVQLQASGGGFVQPGGSLRLSCAASGFFSNIEDMGWFRQAPGKEREFVSAISGYENESPYYADSVKGRFTISRDNSKNTVYLQMNSLRAEDTATYYCAAQSYHGKKGMTEYWGQGTQVTVSS
B4: clone 42 (VHH)
VHH: EVQLQASGGGFVQPGGSLRLSCAASGDGSFASAMGWFRQAPGKEREFVSAISAHAGGSPYYADSVKGRFTISRDNSKNTVYLQMNSLRAEDTATYYCAQRIGATRAMYWGQGTQVTVSS
B5: clone 60 (VHH)
VHH: EVQLQASGGGFVQPGGSLRLSCAASGSTFKHSAMGWFRQAPGKEREFVSAISSGPGMESYYADSVKGRFTISRDNSKNTVYLQMNSLRAEDTATYYCAGRAFPGQKMYWGQGTQVTVSS
B6: clone 1 (VHH)
VHH: EVQLQASGGGFVQPGGSLRLSCAASGDTYRWDNMGWFRQAPGKEREFVSAISGLGNMDSYYADSVKGRFTISRDNSKNTVYLQMNSLRAEDTATYYCAQEEKWMSPQYWGQGTQVTVSS
B7: clone 26 (VHH)
VHH: EVQLQASGGGFVQPGGSLRLSCAASGAYSARTTMGWFRQAPGKEREFVSAISAHEGQAPYYADSVKGRFTISRDNSKNTVYLQMNSLRAEDTATYYCATRAHEPKGMYWGQGTQVTVSS
B8: clone 8 (VHH)
VHH: EVQLQASGGGFVQPGGSLRLSCAASGSTSSHYDMGWFRQAPGKEREFVSAISYNHDHDTYYADSVKGRFTISRDNSKNTVYLQMNSLRAEDTATYYCAGATATTDGGYQEYWGQGTQVTVSS
B9: clone 7 (VHH)
VHH: EVQLQASGGGFVQPGGSLRLSCAASGTSYANSDMGWFRQAPGKEREFVSAISGGDSAYYYYADSVKGRFTISRDNSKNTVYLQMNSLRAEDTATYYCATQQIGMREYYWGQGTQVTVSS
B10: clone 6 (VHH)
VHH: EVQLQASGGGFVQPGGSLRLSCAASGTTYSSDTMGWFRQAPGKEREFVSAISGRQNWDRYYADSVKGRFTISRDNSKNTVYLQMNSLRAEDTATYYCAYWGHGTYEFDPKSMYWGQGTQVTVSS
B11: clone 3 (VHH)
VHH: EVQLQASGGGFVQPGGSLRLSCAASGSTSYSYNMGWFRQAPGKEREFVSAISRDGDWKNYYADSVKGRFTISRDNSKNTVYLQMNSLRAEDTATYYCAFEEHWMTPLYWGQGTQVTVSS
B12: clone 49 (VHH)
VHH: EVQLQASGGGFVQPGGSLRLSCAASGGFFTSSTMGWFRQAPGKEREFVSAISRQHDNAPYYADSVKGRFTISRDNSKNMVYLQMNSLRAEDTATYYCAARNATHKGIYWGQGTQVTVSS
B13: clone 28 (VHH)
VHH: EVQLQASGGGFVQPGGSLRLSCAASGASYRGTSMGWFRQAPGKEREFVSAISFRPDQQPYYADSVKGRFTISRDNSKNTVYLQMNSLRAEDTATYYCAERRQHSRGLYWGQGTQVTVSS
B14: clone 44 (VHH)
VHH: EVQLQASGGGFVQPGGSLRLSCAASGFTSGSTAMGWFRQAPGKEREFVSAISRFENQGNYYADSVKGRFTISRDNSKNTVYLQMNSLRAEDTATYYCATRAVASSTMYWGQGTQVTVSS
B15: clone 10 (VHH)
VHH: EVQLQASGGGFVQPGGSLRLSCAASGRTSWSEIMGWFRQAPGKEREFVSAISRYTDDYSYYADSVKGRFTISRDNSKNTVYLQMNSLRAEDTATYYCATYHYQYGGDQTFYWGQGTQVTVSS
B16: clone 41 (VHH)
VHH: EVQLQASGGGFVQPGGSLRLSCAASGDTWRTTAMGWFRQAPGKEREFVSAISGGDNRGTYYADSVKGRFTISRDNSKNTVYLQMNSLRAEDTATYYCAGRLNQNGPMYWGQGTQVTVSS
B17: clone 5 (VHH)
VHH: EVQLQASGGGFVQPGGSLRLSCAASGTTSFRDTMGWFRQAPGKEREFVSAISWNEGHAHYYADSVKGRFTISRDNSKNTVYLQMNSLRAEDTATYYCASEDMWFNHFYWGQGTQVTVSS
B18: clone 66 (VHH)
VHH: EVQLQASGGGFVQPGGSLRLSCAASGTGSNASAMGWFRQAPGKEREFVSAISRHEGQPPYYADSVKGRFTISRDNSKNTVYLQMNSLRAEDTATYYCAMRYQSHIDIPGDSSPKLMYWGQGTQVTVSS
B19: clone 9 (VHH)
VHH: EVQLQASGGGFVQPGGSLRLSCAASGSYSAETDMGWFRQAPGKEREFVSAISGDPTTTTYYADSVKGRFTISRDNSKNTVYLQMNSLRAEDTATYYCAYQRLDNFEIYWGQGTQVTVSS
B20: clone 40 (VHH)
VHH: EVQLQASGGGFVQPGGSLRLSCAASGRTFDGSAMGWFRQAPGKEREFVSAISASPSGESYYADSVKGRFTISRDNSKNTVYLQMNSLRAEDTATYYCAGRGRSQKSMYWGQGTQVTVSS

Experiments:
LF-Biotin [1] = target: T1, LF-Biotin; test: non-adsorbed VHH ELISA, IPTG-induced VHH-myc, LF-Biotin vs His-SNAP-Halo-Biotin
LF-Biotin [2] = target: T1, LF-Biotin; test: non-adsorbed phage ELISA, VHH on M13 phage, LF-Biotin vs His-SNAP-Halo-Biotin
EF-Biotin [3] = target: T2, EF-Biotin; test: non-adsorbed VHH ELISA, IPTG-induced VHH-myc, EF-Biotin (Ag+) vs control (Ag-)
EF-Biotin [4] = target: T2, EF-Biotin

| Binder | Induced ELISA ratio Signal LF/signal His-SNAP-Halo (LF-Biotin [1]) [ratio] | Phage ELISA ratio signal LF/signal His-SNAP-Halo (LF-Biotin [2]) [ratio] | Phage IPTG Ag+/Ag- (EF-Biotin [3]) [ratio] | Phage ELISA Ag+/Ag- (EF-Biotin [4]) [ratio] |
| --- | --- | --- | --- | --- |
| B1 | 9.2 | 34.6 | – | – |
| B2 | – | – | 6.3 | 40.1 |
| B3 | 5 | 36.5 | – | – |
| B4 | – | – | 5 | 36.2 |
| B5 | – | – | 4.9 | 43.6 |
| B6 | 6.3 | 45.5 | – | – |
| B7 | – | – | 10.2 | 51.3 |
| B8 | 5.5 | 30.2 | – | – |
| B9 | 6.8 | 17 | – | – |
| B10 | 7.3 | 8.9 | – | – |
| B11 | 6.3 | 47.2 | – | – |
| B12 | – | – | 3.6 | 36.7 |
| B13 | – | – | 6.6 | 44.5 |
| B14 | – | – | 6.1 | 52.7 |
| B15 | 3.9 | 7.7 | – | – |
| B16 | – | – | 5.7 | 36.7 |
| B17 | 8 | 41.5 | – | – |
| B18 | – | – | 5.8 | 51.8 |
| B19 | 4.6 | 38.1 | – | – |
| B20 | – | – | 6.2 | 31.5 |
